Test results reported in the supplement of paper PMC10567573.

B1: INTS3 (parent)
chain: AQLQALRQKEVDFCISLLRERFME

Variants of: B1
Assay: protein stability index of a GFP-peptide fusion (GPS, HEK-293T) (PSI 1-6); higher = more stable
Settings: c terminus: a fixed tail appended
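Further: lentivirally expressed fusions sorted by FACS into six bins by GFP to DsRed ratio, PSI derived from sequencing read proportions per bin multiplied by bin number.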

Protein stability index: each site, then its substitutions
R21: E 2.1 | M 2.09 | L 2.34 | T 3.99 | H 2.91 | N 2.7 | F 1.36 | G 2.99 | C 2.58 | A 2.41 | K 2.5 | W 2.68 | D 1.14
S16: K 1.65 | E 3.24 | V 1.11 | M 4.38 | R 3.39 | G 3.67 | C 3.15 | Y 3.56 | I 2.38 | D 2.09 | Q 3.15 | N 3.32 | F 4.27
E24: R 3.34 | I 2.7 | G 1.92 | T 1.77 | N 2.72 | V 2.95 | Y 2.66 | A 3.89
K9: N 1.93 | E 2.18 | L 2.48 | R 2.32 | M 2.65 | S 2.29 | T 2.45 | Y 3.51 | G 2.51 | P 2.91 | Q 3.5 | F 2.45 | H 3.64 | I 3.07 | D 1.9 | W 1.45 | C 2.98
Q2: Y 3.15 | N 3.27 | T 3.02 | G 3.4 | M 3.7 | W 2.42 | E 1.48 | R 4.11 | I 1.67 | P 2.38 | H 4.58 | F 2.63 | D 3.29
A1: M 2.4 | V 2.85 | E 2.65 | T 3.13 | Q 2.43 | G 2.93 | P 3.68 | D 2.11 | W 2.49 | H 3.79 | K 2.62 | I 2.43 | L 1.61
E10: W 1.53 | C 1.02 | I 2.25 | N 1.32 | K 2.2 | M 2.87 | L 3.79 | A 2.86 | D 1.04 | S 3.14 | Y 1.49 | P 2.72 | G 2.1 | R 2.09
L18: Q 3.04 | Y 3.92 | R 2.2 | N 1.97 | A 1.7 | P 2.04 | G 3.07 | D 2.38 | T 2.24 | V 3.22 | S 1.87 | K 2.34 | C 1.02 | H 1.76 | E 2.57
A5: K 1.92 | D 2.68 | I 2.07 | H 2.44 | Y 2.68 | L 3.11 | E 2.24 | M 1.51 | V 1.04 | C 3.02 | N 2.61 | T 1.65 | S 2.33 | F 4.25
L6: E 1.52 | F 2.59 | G 1.98 | Q 2.02 | N 1.97 | K 2.31 | D 1.96 | I 1.93 | H 2.11 | Y 2.57 | T 1.86 | V 2.98 | S 2.14 | A 2.13 | R 2.02 | W 1.73 | C 3.33 | P 2.25
F22: P 1.67 | H 1.18 | T 1.97 | S 1.31 | N 1.69 | R 2.1 | Y 2.21 | A 1.45 | K 1.92 | Q 1.98 | C 1.19 | G 1.17 | M 3.62 | E 2.16 | W 3.21
D12: I 1.91 | W 3.08 | G 2.1 | C 3.46 | R 2.19 | T 2.66 | Y 2.09 | Q 2.12 | S 3.29 | K 1.98 | L 2.47 | P 2.05 | V 4.29
M23: G 1.9 | I 2.46 | Q 1.03 | N 2.55 | K 2.84 | D 1.95 | T 1.85 | V 5.11 | H 1.96 | A 2.78 | R 2.91
E20: M 2.92 | I 3.04 | P 2.08 | R 2.49 | D 2.65 | S 5.14 | L 2.34 | G 3.34 | C 2.38
Q4: H 3.32 | T 3.02 | A 3.65 | P 1.5 | M 2.55 | E 2.81 | G 2.13 | F 1.83 | D 2.04 | S 1.55 | C 1.93 | R 2.3 | W 3.64 | N 2.4 | I 3.2 | V 2.98
F13: T 2.44 | I 2.49 | P 2.3 | M 2.52 | N 2.37 | Y 5.35 | W 3.65 | G 2 | Q 1.82 | D 1.55 | L 1.64 | C 3.42 | S 2.19 | V 2.7 | K 2.9 | R 1.27 | E 1.66 | A 1.09 | H 1.95
C14: E 1.75 | S 2.02 | N 1.52 | W 1.96 | R 2.16 | G 1.84 | K 1.93 | I 2.68 | Q 1.84 | H 1.94 | D 2.03 | T 1.68 | Y 2.16 | P 2.03
I15: Y 2.3 | Q 1.77 | K 2.17 | P 2.07 | N 2.46 | W 2.07 | R 1.71 | G 2.6 | L 2.84 | H 2.37 | M 1.17 | S 1.67 | T 2.07 | E 2.34
L17: Y 2.51 | D 2.56 | Q 2.45 | R 2.08 | A 2.03 | S 1.22 | V 3.89 | K 2 | F 1.9 | H 1.65 | E 2.06 | W 2.46 | G 2.3
R19: G 1.37 | K 1.2 | M 2.43 | N 3.64 | P 2.21 | Y 2.94 | L 2.02 | F 1.87 | S 3.43 | E 1 | D 1.57 | Q 2.74
L3: A 2.15 | S 1.76 | R 1.19 | M 2 | C 1.76 | H 1.41 | N 1.55 | W 2.71 | E 2.21 | T 1.44 | G 2.11 | K 1.5 | Q 1.78 | I 2.87 | D 1.81
Q8: S 3.06 | H 3.1 | Y 4.01 | P 1.22 | L 1.78 | D 2.83 | K 1.65 | E 1.91 | R 1.91 | N 2.37 | T 3.06 | I 3.36 | G 2.55 | A 2.62
V11: R 1.99 | S 1.67 | Q 1.81 | C 1.29 | K 1.7 | N 2.25 | G 1.72 | A 2.23 | Y 2.73 | H 3.66 | M 3.61 | W 2.14 | E 2.54 | T 1.81 | F 2.1 | D 2.49 | P 2.7
R7: G 4.64 | N 2.35 | K 2.71 | T 3.43 | F 2.46 | Y 3.17 | P 2.23 | S 2.93 | Q 2.73 | V 1.74 | D 1.65 | L 2.24 | H 2.84 | W 2.6
